The target in this assay is T1, MUC1 60-mer peptide NH2-(…)3-COOH (biotinylated in the ELISAs and selections).
T1 construct: also called biotinylated MUC1 60-mer
The assay is described as follows: ELISA, soluble Fab, biotinylated MUC1 60-mer; relative signal. The method, then: Soluble Fabs were produced as described (Roovers et al., Br. J. Cancer, 78: 1407-16 (1998)). ELISAs were performed as described by Henderikx et al. (Cancer Res., 58: 4324-4332 (1998)), except the biotinylated MUC1 60-mer was used. The selected PH1 and the affinity-matured antibodies were evaluated for affinity by surface plasmon resonance (SPR) on a BIAcore 2000 apparatus (BIAcore AB, Uppsala, Sweden). Channels of a biotin chip were coated with a MUC1 15-mer, containing the minimal PH1 epitope, PAP, (Ac-PDTRPAPGSTAPPAL-NH₂, (SEQ ID NO:40) 50 RU or 320 RU) or a 60-mer (NH₂-([…])₃-COOH (i.e., containing three copies of SEQ ID NO:8 (von Mensdorff-Pouilly et al., Tumor Biol., 19: 186-195 (1998), 50 RU) in HBS-EP buffer (Pharmacia). One surface was blocked with biotin (15 RU) and used as a negative control. The antibodies were injected in HBS-EP buffer. To minimize rebinding of the antigen binding fragments, the flow speed was 30 μl/sec. Affinity calculation was performed with the BIA-evaluation software provided by the BIAcore. The affinities of the Fabs were calculated according to a 1:1 stoichiometry at steady state.

T1 sequence (peptide, as listed by the source): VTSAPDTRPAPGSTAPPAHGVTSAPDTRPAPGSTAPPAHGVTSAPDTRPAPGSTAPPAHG

B1: 3A7 (Fab, V domains shown)
VH: QVQLVQSGGGLVQPGGSLRLSCAASGFTFRSNAMGWVRQAPGKGLEWVSGISGSGGSTYYADSVKGRFTISRDNSKNTLYLQMNSLRAEDTAVYYCAKHTGGGVWDPIDKWGQGTLVTVSS
VL: EIVLTQSPLSLPVTPGEPASISCRSSQSLLHSNGYTYLDWYLQKPGQSPQLLIYSGSHRASGVPDRFSGSVSGTDFTLRISRVEAEDVGVYYCMQGLQSPFTFGPGTKVDIKR
notes: PH1 Fab variant
Consider B1, for which the binding result is reported as “binds”.

B2: 6B5 (Fab, V domains shown)
VH: QVQLVQSGGGLVQPGGSLRLSCAASGFTFRSNAMGWVRQAPGKGLEWVSGISGSGGSTYYADSVKGRFTISRDNSKNTLYLQMNSLRAEDTAVYYCAKHTGGGVWDPIAYWGQGTLVTVSS
VL: EIVLTQSPLSLPVTPGEPASISCRSSQSLLHSNGYTYLDWYLQKPGQSPQLLIYSGSHRASGVPDRFSGSVSGTDFTLRISRVEAEDVGVYYCMQGLQSPFTFGPGTKVDIKR
notes: PH1 Fab variant
Turning to B2, the binding result is recorded as “binds”.

B3: 6B6 (Fab, V domains shown)
VH: QVQLVQSGGGLVQPGGSLRLSCAASGFTFRSNAMGWVRQAPGKGLEWVSGISGSGGSTYYADSVKGRFTISRDNSKNTLYLQMNSLRAEDTAVYYCAKHTGGGVWDPIGYWGQGTLVTVSS
VL: EIVLTQSPLSLPVTPGEPASISCRSSQSLLHSNGYTYLDWYLQKPGQSPQLLIYSGSHRASGVPDRFSGSVSGTDFTLRISRVEAEDVGVYYCMQGLQSPFTFGPGTKVDIKR
notes: PH1 Fab variant
Consider B3, for which the binding result is recorded as “binds”.

B4: 3G1 (Fab, V domains shown)
VH: QVQLVQSGGGLVQPGGSLRLSCAASGFTFRSNAMGWVRQAPGKGLEWVSGISGSGGSTYYADSVKGRFTISRDNSKNTLYLQMNSLRAEDTAVYYCAKHTGGGVWDPIDDWGQGTLVTVSS
VL: EIVLTQSPLSLPVTPGEPASISCRSSQSLLHSNGYTYLDWYLQKPGQSPQLLIYSGSHRASGVPDRFSGSVSGTDFTLRISRVEAEDVGVYYCMQGLQSPFTFGPGTKVDIKR
notes: PH1 Fab variant
B4: the binding result is “binds”.

B5: 3B8 (Fab, V domains shown)
VH: QVQLVQSGGGLVQPGGSLRLSCAASGFTFRSNAMGWVRQAPGKGLEWVSGISGSGGSTYYADSVKGRFTISRDNSKNTLYLQMNSLRAEDTAVYYCAKHTGAGVWDPIDYWGQGTLVTVSS
VL: EIVLTQSPLSLPVTPGEPASISCRSSQSLLHSNGYTYLDWYLQKPGQSPQLLIYSGSHRASGVPDRFSGSVSGTDFTLRISRVEAEDVGVYYCMQGLQSPFTFGPGTKVDIKR
notes: PH1 Fab variant
As for B5, the binding result is recorded as “binds”.

B6: 3H1 (Fab, V domains shown)
VH: QVQLVQSGGGLVQPGGSLRLSCAASGFTFRSNAMGWVRQAPGKGLEWVSGISGSGGSTYYADSVKGRFTISRDNSKNTLYLQMNSLRAEDTAVYYCAKHTGGGVWDPFAYWGQGTLVTVSS
VL: EIVLTQSPLSLPVTPGEPASISCRSSQSLLHSNGYTYLDWYLQKPGQSPQLLIYSGSHRASGVPDRFSGSVSGTDFTLRISRVEAEDVGVYYCMQGLQSPFTFGPGTKVDIKR
notes: PH1 Fab variant
As to B6, the binding result is given as “binds”.

B7: 6A9 (Fab, V domains shown)
VH: QVQLVQSGGGLVQPGGSLRLSCAASGFTFRSNAMGWVRQAPGKGLEWVSGISGSGGSTYYADSVKGRFTISRDNSKNTLYLQMNSLRAEDTAVYYCAKHTGSGVWDPINYWGQGTLVTVSS
VL: EIVLTQSPLSLPVTPGEPASISCRSSQSLLHSNGYTYLDWYLQKPGQSPQLLIYSGSHRASGVPDRFSGSVSGTDFTLRISRVEAEDVGVYYCMQGLQSPFTFGPGTKVDIKR
notes: PH1 Fab variant
As to B7, the binding result is recorded as “binds”.

B8: 3F7 (Fab, V domains shown)
VH: QVQLVQSGGGLVQPGGSLRLSCAASGFTFRSNAMGWVRQAPGKGLEWVSGISGSGGSTYYADSVKGRFTISRDNSKNTLYLQMNSLRAEDTAVYYCAKHTGGGVWDPIYYWGQGTLVTVSS
VL: EIVLTQSPLSLPVTPGEPASISCRSSQSLLHSNGYTYLDWYLQKPGQSPQLLIYSGSHRASGVPDRFSGSVSGTDFTLRISRVEAEDVGVYYCMQGLQSPFTFGPGTKVDIKR
notes: PH1 Fab variant
Consider B8, for which the binding result is “binds”.

B9: 3H2 (Fab, V domains shown)
VH: QVQLVQSGGGLVQPGGSLRLSCAASGFTFRSNAMGWVRQAPGKGLEWVSGISGSGGSTYYADSVKGRFTISRDNSKNTLYLQMNSLRAEDTAVYYCAKHTGGGVWDPMDYWGQGTLVTVSS
VL: EIVLTQSPLSLPVTPGEPASISCRSSQSLLHSNGYTYLDWYLQKPGQSPQLLIYSGSHRASGVPDRFSGSVSGTDFTLRISRVEAEDVGVYYCMQGLQSPFTFGPGTKVDIKR
notes: PH1 Fab variant
B9: the binding result is reported as “binds”.

B10: 6B3 (Fab, V domains shown)
VH: QVQLVQSGGGLVQPGGSLRLSCAASGFTFRSNAMGWVRQAPGKGLEWVSGISGSGGSTYYADSVKGRFTISRDNSKNTLYLQMNSLRAEDTAVYYCAKHTGGGVWDPIGHWGQGTLVTVSS
VL: EIVLTQSPLSLPVTPGEPASISCRSSQSLLHSNGYTYLDWYLQKPGQSPQLLIYSGSHRASGVPDRFSGSVSGTDFTLRISRVEAEDVGVYYCMQGLQSPFTFGPGTKVDIKR
notes: PH1 Fab variant
Take B10: the binding result is listed as “binds”.

B11: 3B9 (Fab, V domains shown)
VH: QVQLVQSGGGLVQPGGSLRLSCAASGFTFRSNAMGWVRQAPGKGLEWVSGISGSGGSTYYADSVKGRFTISRDNSKNTLYLQMNSLRAEDTAVYYCAKHTGGGVWDPLGYWGQGTLVTVSS
VL: EIVLTQSPLSLPVTPGEPASISCRSSQSLLHSNGYTYLDWYLQKPGQSPQLLIYSGSHRASGVPDRFSGSVSGTDFTLRISRVEAEDVGVYYCMQGLQSPFTFGPGTKVDIKR
notes: PH1 Fab variant
For the molecule B11, the binding result is reported as “binds”.

B12: 3D7 (Fab, V domains shown)
VH: QVQLVQSGGGLVQPGGSLRLSCAASGFTFRSNAMGWVRQAPGKGLEWVSGISGSGGSTYYADSVKGRFTISRDNSKNTLYLQMNSLRAEDTAVYYCAKHTGAGVWDPIDYWGQGTLVTVSS
VL: EIVLTQSPLSLPVTPGEPASISCRSSQSLLHSNGYTYLDWYLQKPGQSPQLLIYSGSHRASGVPDRFSGSVSGTDFTLRISRVEAEDVGVYYCMQGLQSPFTFGPGTKVDIKR
notes: PH1 Fab variant
Consider B12, for which the binding result is listed as “binds”.

B13: 5A6 (Fab, V domains shown)
VH: QVQLVQSGGGLVQPGGSLRLSCAASGFTFRSNAMGWVRQAPGKGLEWVSGISGSGGSTYYADSVKGRFTISRDNSKNTLYLQMNSLRAEDTAVYYCVKHTGGGVWDPIDYWGQGTLVTVSS
VL: EIVLTQSPLSLPVTPGEPASISCRSSQSLLHSNGYTYLDWYLQKPGQSPQLLIYSGSHRASGVPDRFSGSVSGTDFTLRISRVEAEDVGVYYCMQGLQSPFTFGPGTKVDIKR
notes: PH1 Fab variant
Take B13: the binding result was “binds”.

B14: 6C8 (Fab, V domains shown)
VH: QVQLVQSGGGLVQPGGSLRLSCAASGFTFRSNAMGWVRQAPGKGLEWVSGISGSGGSTYYADSVKGRFTISRDNSKNTLYLQMNSLRAEDTAVYYCAKHTGGGVWDPINDWGQGTLVTVSS
VL: EIVLTQSPLSLPVTPGEPASISCRSSQSLLHSNGYTYLDWYLQKPGQSPQLLIYSGSHRASGVPDRFSGSVSGTDFTLRISRVEAEDVGVYYCMQGLQSPFTFGPGTKVDIKR
notes: PH1 Fab variant
Take B14: the binding result is “binds”.

B15: 3F4 (Fab, V domains shown)
VH: QVQLVQSGGGLVQPGGSLRLSCAASGFTFRSNAMGWVRQAPGKGLEWVSGISGSGGSTYYADSVKGRFTISRDNSKNTLYLQMNSLRAEDTAVYYCAKHTGGGVWDPIANWGQGTLVTVSS
VL: EIVLTQSPLSLPVTPGEPASISCRSSQSLLHSNGYTYLDWYLQKPGQSPQLLIYSGSHRASGVPDRFSGSVSGTDFTLRISRVEAEDVGVYYCMQGLQSPFTFGPGTKVDIKR
notes: PH1 Fab variant
For the molecule B15, the binding result is on record as “binds”.

B16: 3E2 (Fab, V domains shown)
VH: QVQLVQSGGGLVQPGGSLRLSCAASGFTFRSNAMGWVRQAPGKGLEWVSGISGSGGSTYYADSVKGRFTISRDNSKNTLYLQMNSLRAEDTAVYYCAKHTGGGVWDPIAYWGQGTLVTVSS
VL: EIVLTQSPLSLPVTPGEPASISCRSSQSLLHSNGYTYLDWYLQKPGQSPQLLIYSGSHRASGVPDRFSGSVSGTDFTLRISRVEAEDVGVYYCMQGLQSPFTFGPGTKVDIKR
notes: PH1 Fab variant
B16: the binding result is on record as “binds”.

B17: 3F3 (Fab, V domains shown)
VH: QVQLVQSGGGLVQPGGSLRLSCAASGFTFRSNAMGWVRQAPGKGLEWVSGISGSGGSTYYADSVKGRFTISRDNSKNTLYLQMNSLRAEDTAVYYCAKHTGRGVWDPIDYWGQGTLVTVSS
VL: EIVLTQSPLSLPVTPGEPASISCRSSQSLLHSNGYTYLDWYLQKPGQSPQLLIYSGSHRASGVPDRFSGSVSGTDFTLRISRVEAEDVGVYYCMQGLQSPFTFGPGTKVDIKR
notes: PH1 Fab variant
Regarding B17, the binding result was “binds”.

B18: 6C5 (Fab, V domains shown)
VH: QVQLVQSGGGLVQPGGSLRLSCAASGFTFRSNAMGWVRQAPGKGLEWVSGISGSGGSTYYADSVKGRFTISRDNSKNTLYLQMNSLRAEDTAVYYCVKHTGGGVWDPIVYWGQGTLVTVSS
VL: EIVLTQSPLSLPVTPGEPASISCRSSQSLLHSNGYTYLDWYLQKPGQSPQLLIYSGSHRASGVPDRFSGSVSGTDFTLRISRVEAEDVGVYYCMQGLQSPFTFGPGTKVDIKR
notes: PH1 Fab variant
As for B18, the binding result is recorded as “binds”.

B19: 3D1 (Fab, V domains shown)
VH: QVQLVQSGGGLVQPGGSLRLSCAASGFTFRSNAMGWVRQAPGKGLEWVSGISGSGGSTYYADSVKGRFTISRDNSKNTLYLQMNSLRAEDTAVYYCAQHTGGGVWDPIGYWGQGTLVTVSS
VL: EIVLTQSPLSLPVTPGEPASISCRSSQSLLHSNGYTYLDWYLQKPGQSPQLLIYSGSHRASGVPDRFSGSVSGTDFTLRISRVEAEDVGVYYCMQGLQSPFTFGPGTKVDIKR
notes: PH1 Fab variant
As to B19, the binding result was “binds”.

The values are drawn from patent publication US20020146750A1 (published 2002).
